From article PMC10492700

What was measured:
Assay in all cases: NMR
Conditions in all cases: 308 K; not stated (50 mM buffer); 50 mM MES, MOPS, HEPES, TRIS/HCl or CAPS; zinc-loaded, inhibitor-free, folded
His119 = His119 (UniProt position 119, YAAELHLVHWN)
His96 = His96 (UniProt position 96, IQFHFHWGSLD)
His107 = His107 (UniProt position 107, GQGSEHTVDKK)

Carbonic anhydrase II (HCAII), wild type (Homo sapiens)
pKa (His119): <5.1 (not titrating in the studied pH range, 5.1-9.9) | pKa (His96): <5.1 (not titrating in the studied pH range, 5.1-9.9) | pKa (His107): <5.1 (not titrating in the studied pH range, 5.1-9.9)
